Assay results reported in article doi:10.1101/2024.02.23.581681 (bioRxiv, 2024).

T1: RCD1-SRO-TAF4 (RST) domain from Radical-Induced Cell Death1, RCD1-RST_(499-572) (UniProt Q8RY59 499-572)
T1 sequence (looked up): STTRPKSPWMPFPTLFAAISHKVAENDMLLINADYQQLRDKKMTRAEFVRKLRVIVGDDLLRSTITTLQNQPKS


Experiments:
[1] = molecular target: RCD1-SRO-TAF4 (RST) domain from Radical-Induced Cell Death1, RCD1-RST_(499-572) (UniProt Q8RY59); assay: ITC
[2] = molecular target: T1, RCD1-SRO-TAF4 (RST) domain from …; assay: ITC

| Molecule | binding result [2] | further results |
| --- | --- | --- |
| D-ANAC013_(254-274) peptide, D-enantiomer (from UniProt F4IED2 254-274) |  | fold difference in Kd against L-ANAC013 [1]: 500 fold |
| D-ANAC046_(319-338) peptide, D-enantiomer (from UniProt Q9SQQ6 319-338) |  | fold difference in Kd against L-ANAC046 [1]: 15 fold |
| D-DREB2A_(255-272) peptide, D-enantiomer (from UniProt O82132 255-272) |  | fold difference in Kd against L-DREB2A [1]: 72 fold |
| NLEEDMYLEINDLMEPEPEPT (peptide, UniProt F4IED2 254-274, looked up) [L-ANAC013_(254-274) peptide] | binds |  |
| SKSACDGLDDLIFWEDLYTS (peptide, UniProt Q9SQQ6 319-338, looked up) [L-ANAC046_(319-338) peptide] | binds |  |
| SSDMFDVDELLRDLNGDD (peptide, UniProt O82132 255-272, looked up) [L-DREB2A_(255-272) peptide] | binds |  |
